Laboratory results reported in US20240011046A1 (UNIVERSITY OF PITTSBURGH OF THE COMMONWEALTH SYSTEM OF …, published 2024).
Where a chain is given by its changes, count along the chain named. Blank lines part the entries; values can stand above or below the binder they belong to.

What was measured:
[1] = molecular target: TGF-β receptor II (TβRII) on the HEK-293 TGF-β CAGA-Luc reporter cells (UniProt P37173 23-567, limits assumed); assay: cell-based or functional assay
[2] = molecular target: T1, TGF-β type II receptor (TβRII) (UniProt P37173 38-159); assay: ITC: TβRII injected into the monomer, three replicate titrations globally fit to a 1:1 binding model (reference control)
T1 construct: Soluble protein: injected in ITC, and 2 µg run on the native gel; also called TGF-β receptor II; transforming growth factor-β type 2 receptor
Experimental: (§1) In order to evaluate the ability of the mmTGF-β2-7M variants described herein (mmTGF-β2-7M2R (SEQ ID NO: 9), mmTGF-β2-2M-De18-17 (SEQ ID NO: 10), and mmTGF-β2-7M-PRDC (SEQ ID NO: 11)) to bind TβRII, isothermal titration calorimetry (ITC) and native gels were used. The ITC binding experiments were performed by injecting increasing amounts of TβRII into mmTGF-β2-7M2R (SEQ ID NO: 9) or mmTGF-β2-2M-De18-17 (SEQ ID NO: 10), with mmTGF-β2-7M (SEQ ID NO: 7) used a reference control. These titrations yielded readily detectable isotherms with a large negative enthalpy and a near 1:1 binding stoichiometry (FIG. 8).

[3] = molecular target: T1, TGF-β type II receptor (TβRII); assay: ITC: TβRII injected into the monomer, three replicate titrations globally fit to a 1:1 binding model
Experimental: as §1

T1 sequence (P37173 38-159 limits assumed): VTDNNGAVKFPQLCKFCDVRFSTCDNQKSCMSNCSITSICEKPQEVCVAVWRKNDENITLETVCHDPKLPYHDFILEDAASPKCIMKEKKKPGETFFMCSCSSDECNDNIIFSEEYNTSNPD
Chain of TGF-β receptor II (TβRII) on the HEK-293 TGF-β CAGA-Luc reporter cells (P37173 23-567 limits assumed): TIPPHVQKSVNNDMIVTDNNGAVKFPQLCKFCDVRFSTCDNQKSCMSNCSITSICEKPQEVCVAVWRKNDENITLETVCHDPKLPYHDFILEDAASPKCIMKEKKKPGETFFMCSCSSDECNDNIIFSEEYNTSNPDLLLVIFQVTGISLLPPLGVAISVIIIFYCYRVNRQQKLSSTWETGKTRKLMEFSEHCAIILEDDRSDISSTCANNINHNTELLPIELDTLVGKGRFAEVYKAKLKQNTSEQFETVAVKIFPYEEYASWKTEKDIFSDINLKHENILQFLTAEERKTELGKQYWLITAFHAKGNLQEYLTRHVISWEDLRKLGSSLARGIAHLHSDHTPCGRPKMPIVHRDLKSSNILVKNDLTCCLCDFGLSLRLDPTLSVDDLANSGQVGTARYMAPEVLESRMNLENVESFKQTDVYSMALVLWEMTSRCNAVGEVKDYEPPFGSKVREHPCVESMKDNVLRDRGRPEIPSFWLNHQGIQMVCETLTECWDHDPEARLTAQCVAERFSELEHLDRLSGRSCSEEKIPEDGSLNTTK

HEK-293 CAGA-Luc TGF-β reporter assay, IC50 relative to mmTGF-β2-7M [1]: ~5 fold
HEK-293 CAGA-Luc TGF-β reporter assay, inhibition of signaling stimulated by 10 pM TGF-β3, IC50 [1]: 282 nM
B1: mmTGF-β2-7M-PRDC (designed binder)
chain: KEVLASSQEALVVTERKYLKSDWCKLRPLYIDFRKDLGWKWIHEPKGYNANFCYGQCNSFYIPRHVKKEEDSFQSSAFCVSQDLEPLTIVYYVGRKPKVEQLSNMIVKSCRCMSV

HEK-293 CAGA-Luc TGF-β reporter assay, inhibition of signaling stimulated by 10 pM TGF-β3, IC50 [1]: 58.2 nM
Kd [2]: 60.5 nM
B2: mmTGF-β2-7M (designed binder)
chain: ALDAAYCFRNVQDNCCLRPLYIDFRKDLGWKWIHEPKGYNANFCAGACPYRASKSPSCVSQDLEPLTIVYYVGRKPKVEQLSNMIVKSCKCS
notes: also called dnTGFβ2^mm; mini-monomer

HEK-293 CAGA-Luc TGF-β reporter assay, inhibition of signaling stimulated by 10 pM TGF-β3, IC50 [1]: 111 nM
Kd [3]: 80.1 nM
B3: mmTGF-β2-2M-Del8-17 (designed binder)
chain: B2 chain with C7V, C16A, K26R, V69L, V72I, K75T, V78I
notes: The 8-17 disulfide is eliminated; also called mmTGF-β2-2M-De18-17; mmTGF-β2-2M-De18_17

HEK-293 CAGA-Luc TGF-β reporter assay, inhibition of signaling stimulated by 10 pM TGF-β3, IC50 [1]: 53.3 nM
Kd [3]: 75.1 nM
B4: mmTGF-β2-7M2R (designed binder)
chain: B2 chain with S57R, V59R
notes: Made to reduce aggregation
